Source: US20210155689A1 (SHANGHAI PHARMAEXPLORER, published 2021)
Numbering of substitutions follows the chain as printed.

T1: mouse LAG-3 protein with hFc tag (mLAG-3-hFc protein) (mouse; human, UniProt Q61790 24-442)
T1 construct: Made in HEK293 cells; also called mouse LAG-3 extracellular domain protein; not shown: human IgG Fc fragment (hFc) of the pCpC vector
T1 sequence: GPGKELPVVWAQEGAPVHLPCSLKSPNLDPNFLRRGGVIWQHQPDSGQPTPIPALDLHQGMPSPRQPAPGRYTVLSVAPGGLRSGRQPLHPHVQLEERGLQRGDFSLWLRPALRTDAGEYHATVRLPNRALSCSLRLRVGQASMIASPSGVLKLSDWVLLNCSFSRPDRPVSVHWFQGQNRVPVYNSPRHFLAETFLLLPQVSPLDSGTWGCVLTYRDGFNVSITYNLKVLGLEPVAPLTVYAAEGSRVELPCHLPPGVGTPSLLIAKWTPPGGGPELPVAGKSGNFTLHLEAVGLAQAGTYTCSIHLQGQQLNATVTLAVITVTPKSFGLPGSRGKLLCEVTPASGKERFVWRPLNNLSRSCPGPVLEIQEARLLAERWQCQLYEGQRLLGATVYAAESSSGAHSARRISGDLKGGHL

B1: 105F1E10 (LAG-3 mouse-human chimeric antibody) (antibody, V domains shown)
VH: EVQLQQSGPELVKPGASVKMSCRASGYTFTDFKMHWMKQSHGKSLEWIGYIAPNNGGTAYNQKFRGKATLTVNESSNTAYMELRSLTSEDSAVYYCVDWDDVDYWGQGTTLTVSS
VL: DIKMTQSPSSMYASLGERVTITCKASQDINSYLSWFQQKSGKSPKTLIYRANRLVDGVPSRFSGSGSGQDYSLTISSLEYEDMGIYYCLQYVEFPLTFGAGTKLELK
B2: 405B8H3 (LAG-3 mouse-human chimeric antibody) (antibody, V domains shown)
VH: QVQLQQSGAELVRPGASVTLSCKASGYTFTDYEMHWVKQTPVHGLEWIGATDPETGNSAYNQKFKGKAIMTADKSSSTAYMELRSLTSEDSAVYYCISTGWNDWGQGTSLTVSS
VL: B1 VL with S40P, N52D, V55L, E81G, V92D, L96Y, A100G, L106I
notes: also called mouse-human chimeric antibody 405B8H3
B3: 409B11E12 (LAG-3 mouse-human chimeric antibody) (antibody, V domains shown)
VH: B2 VH with P41T, G56S, N57Y, M70L, S98A
VL: B1 VL with I2L, S40P, V55L, V92D, L96Y, A100G, L106I
B4: 409D4E10 (LAG-3 mouse-human chimeric antibody) (antibody, V domains shown)
VH: B2 VH with Y27N, G56D, S58T, M70L, A72T, S98T, T99S
VL: B1 VL with S40P, V55L, V92N, L96Y, A100G, L106I
B5: 556F6B8 (LAG-3 mouse-human chimeric antibody) (antibody, V domains shown)
VH: RVQLKQSGPGLVQPSQSLSITCTVSGFSLIKYGVHWVRQSPGEGLEWLGVIWRGGITDYNAAFMSRLSITKDNSKSQVFFKMNSLQADDTAIYYCAKWDGPLAMDYWGQGTSVTVSS
VL: DIVMTQSHKFLSTSVGDRVSITCKASQDVGTTVAWYQQKPGQSPKLLIYWASTRHTGVPDRFTGSGSGTDFTLTISNVQSEDLADYFCQQYSSYPYTFGGGTKLEIK
notes: also called 556F8B8

The binders below were run against T1, mouse LAG-3 protein with hFc tag … (assay: ELISA, mLAG-3-hFc coated).
Method: The plate was sealed with plastic film and incubated overnight at 4° C. The plate was washed 2 times with the plate washing solution (PBS+0.01% Tween20) on the next day, and added with the blocking solution (PBS+0.01% Tween20+1% BSA) and blocked at room temperature for 1-2 hours. The blocking solution was poured out, and the plate was added with 50-100 μl of the antibody sample to be tested to each well, incubated at 37° C. for 1-2 hours, and washed 2-3 times with a plate washing solution (PBS+0.01% Tween20). HRP (horseradish peroxidase) labeled secondary antibody was added, and the plate was incubated at 37° C. for 1-2 hours, and washed 2-3 times with a plate washing solution (PBS+0.01% Tween20). 100 μl of TMB substrate was added to each well. After incubated at room temperature for 15-30 minutes, the plate was added with 100 μl of stop solution (1.0N HCl) to each well.

Row | Binder | binding result
1 | B1 | no binding (tested: 66.6670 nM)
2 | B2 | no binding (tested: 66.6670 nM)
3 | B3 | no binding (tested: 66.6670 nM)
4 | B4 | no binding (tested: 66.6670 nM)
5 | B5 | no binding (tested: 66.6670 nM)
